Patent US20250009780A1, “AGENTS ENCODING CLDN6 AND CD3 BINDING ELEMENTS FOR TREATING CLDN6-POSITIVE CANCERS” (BIONTECH SE, priority 2021, published 2025)
Several values for one entry are separate records, joined by “and”; a condition that tells them apart may be missing. Equal entries are not always repeated.

Key:
CLDN6 = target: T1, CLDN6 (Homo sapiens, UniProt P56747); assay: Flow cytometric binding assay, HEK-293T-17 CLDN6 transductants; conditions: 10 μg/mL RiboMab02.1 in HEK-293T-17 supernatant
T1 construct: expressed in transfected cells
T1 sequence (P56747 1-220): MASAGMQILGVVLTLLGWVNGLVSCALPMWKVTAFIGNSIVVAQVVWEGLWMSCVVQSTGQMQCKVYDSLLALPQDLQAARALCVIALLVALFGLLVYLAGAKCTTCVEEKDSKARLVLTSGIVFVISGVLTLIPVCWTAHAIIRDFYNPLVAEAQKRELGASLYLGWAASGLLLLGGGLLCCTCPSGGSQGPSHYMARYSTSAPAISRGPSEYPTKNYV
Text: (§1) Cells were first gated for singlets followed by gating for viable lymphocytes (PBMCs) or viable HEK-293T-17 cells. […] Cynomolgus monkey or human PBMCs and HEK-293T-17 transductants stably expressing luciferase (HEK-293T-17_mock), CLDN3, 4, 6 or 9 served as target cells as indicated. The dotted vertical line marks the peak position of unstained populations.

CLDN3 = target: T2, CLDN3 (Homo sapiens, UniProt O15551); assay: Flow cytometric binding assay, HEK-293T-17 CLDN3 transductants; conditions: 10 μg/mL RiboMab02.1 in HEK-293T-17 supernatant
T2 construct: expressed in transfected cells
T2 sequence (O15551 1-220): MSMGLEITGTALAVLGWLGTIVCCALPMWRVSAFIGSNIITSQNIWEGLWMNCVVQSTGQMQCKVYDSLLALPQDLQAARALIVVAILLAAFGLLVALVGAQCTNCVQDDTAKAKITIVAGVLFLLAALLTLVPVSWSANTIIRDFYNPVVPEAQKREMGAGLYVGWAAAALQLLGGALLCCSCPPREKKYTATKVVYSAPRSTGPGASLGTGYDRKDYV
Text: as §1

simian CD3 = target: T3, simian CD3 (Macaca fascicularis, UniProt Q95LI5); assay: Flow cytometric binding assay, cynomolgus monkey PBMCs; conditions: 10 μg/mL
T3 construct: endogenous in cells; host or cells: cynomolgus monkey PBMCs (T cells)
T3 sequence (Q95LI5 22-198): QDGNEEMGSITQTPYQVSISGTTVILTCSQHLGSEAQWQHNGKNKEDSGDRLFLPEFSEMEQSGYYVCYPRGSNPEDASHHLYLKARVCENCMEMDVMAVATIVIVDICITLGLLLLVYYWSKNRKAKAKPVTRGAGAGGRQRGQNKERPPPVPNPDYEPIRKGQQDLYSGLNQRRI
T3 sequence (Q95LI8 22-171 partner): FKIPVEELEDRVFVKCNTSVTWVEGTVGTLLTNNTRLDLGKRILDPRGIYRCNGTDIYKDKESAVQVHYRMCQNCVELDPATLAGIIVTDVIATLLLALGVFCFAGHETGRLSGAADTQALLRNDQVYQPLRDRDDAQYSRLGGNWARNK
T3 sequence (Q95LI7 23-181 partner): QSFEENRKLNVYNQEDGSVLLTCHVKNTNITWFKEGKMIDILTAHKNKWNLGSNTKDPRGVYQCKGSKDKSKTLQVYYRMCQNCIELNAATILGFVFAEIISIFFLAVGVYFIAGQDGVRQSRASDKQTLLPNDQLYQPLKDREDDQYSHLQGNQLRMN
Text: as §1

human PBMCs (T cells) = assay: T-cell proliferation assay (CFSE-labeled PBMCs, flow cytometry); type: cell-based
Text: CFSE-labeled human PBMCs from three healthy donors were co-cultured with CLDN6-positive PA-1 and OV-90 target cells or with CLDN6-negative but control TAA-positive NUGC-4 as well as target-negative MDA-MB-231 control cells in a 12-well culture plate format. An effector-to-target-cell ratio of 10:1 was applied. In addition, PBMCs without (−) target cells were included separately. […] OKT3 antibody (anti-human CD3; black bars) served as positive control for target-independent CD3-driven T-cell proliferation. After 72 h of incubation, the percentages of proliferating T cells were analyzed by flow cytometry.
HEK-293T-17 producer cells were transfected with BNT142 or a control RiboMab-encoding RNA. Supernatants containing RiboMab02.1 or the control RiboMab (specific for an irrelevant TAA) were used as test items. Two concentrations (100 or 1 ng/mL) of RiboMab-containing supernatant were added to co-cultures of carboxyfluorescein succinimidyl ester (CFSE)-labeled human PBMCs and target-positive or -negative cells. PA-1 or OV-90 served as CLDN6-positive and MDA-MB-231 as target-negative cells. CLDN6-negative NUGC-4 cells (expressing the irrelevant TAA) as well as PBMCs in the absence of any target cells were included as further specificity controls. PBMCs from three healthy donors were compared in this assay. After 72 h of incubation, T cells were analyzed by flow cytometry to determine target-dependent proliferation.

human PBMCs = assay: In vitro human cytokine release (multiplex ELISA on T-cell activation assay supernatants); type: cell-based
Experimental: Cytokine concentration values for each donor (means of technical triplicates) are shown. Filled symbols represent values with target cells while open symbols represent values without target cells.
Cell culture supernatants obtained from the T-cell activation assay were analyzed to investigate the RiboMab02.1-dependent induction of on- and off-target cytokine release. The levels of human pro-inflammatory cytokines IFN-γ, IL-1β, IL-2, IL-6, IL-10 and TNF-α were measured using a customized multiplex ELISA kit.

[1] = Repeated-dose PK study of BNT142 in mice; type: in vivo, Balb/cJRj mice
Experimental: Female Balb/cJRj mice (n=4) were injected IV with 10 or 30 μg BNT142 or 30 μg Luc_RNA-LNP as control once weekly for a total of five administrations at the time points indicated by the horizontal dotted lines. Blood was drawn from mice at baseline (0 h), 6 h after (6, 174, 342, 510, and 678 h) and 24 h before (144, 312, 480, and 648 h) each BNT142 or saline administration, respectively. A final blood draw was done 816 h after the first BNT142/saline administration.
Treatment groups received five IV bolus injections of 10 or 30 μg BNT142 (approximately 0.4 and 1.2 mg/kg, respectively) or 30 μg Luc_RNA-LNP at a weekly interval. Serum samples were prepared from blood drawn from the animals at 6 h after (tmax) and 24 h prior to (last detectable concentration [Ctrough]) each BNT142 administration. […] The last blood samples were drawn 816 h (34 days) after the first injection.

[2] = cynomolgus monkey, in vivo
CLDN9 = target: T4, CLDN9 (Homo sapiens, UniProt O95484); assay: Flow cytometric binding assay, HEK-293T-17 CLDN9 transductants; parameters: expressed in transfected cells; conditions: 10 μg/mL RiboMab02.1 in HEK-293T-17 supernatant
T4 sequence (O95484 1-217): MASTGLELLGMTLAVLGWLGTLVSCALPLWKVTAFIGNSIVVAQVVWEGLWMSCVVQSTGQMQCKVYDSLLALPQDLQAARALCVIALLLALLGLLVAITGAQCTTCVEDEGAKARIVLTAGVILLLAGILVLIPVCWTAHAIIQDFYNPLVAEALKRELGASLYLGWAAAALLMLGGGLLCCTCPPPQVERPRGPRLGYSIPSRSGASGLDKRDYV
Text: as §1

[3] = Single-dose PK study of BNT142 in cynomolgus monkeys
[4] = 0.050 mg/kg, individual animals

Substance: RiboMab02.1: Fab-(scFv)2-based bispecific antibody (tribody) against CLDN6 and CD3 encoded by BNT142; SEQ ID NOs: 4 and 6; C53S
- binding to CLDN6 (CLDN6): bound specifically
- binding to CLDN3 (CLDN3): not to CLDN3, CLDN4 or CLDN9
- binding to simian CD3 (simian CD3): not simian CD3 was recognized
- T-cell proliferation (human PBMCs (T cells); PBMCs co-cultured with CLDN6-negative NUGC-4 cells): no RiboMab02.1-driven T-cell proliferation
- T-cell proliferation (human PBMCs (T cells); PBMCs co-cultured with MDA-MB-231 cells): no RiboMab02.1-driven T-cell proliferation
- T-cell proliferation (human PBMCs (T cells); absence of any target cells): no RiboMab02.1-driven T-cell proliferation
- T-cell proliferation (human PBMCs (T cells); with OV-90 cells, 1 ng/mL, 72 h): 2±3%
- T-cell proliferation (human PBMCs (T cells); with OV-90 cells, 100 ng/mL, 72 h): 24±3%
- T-cell proliferation (human PBMCs (T cells); with PA-1 cells, 1 ng/mL, 72 h): ~44±7%
- T-cell proliferation (human PBMCs (T cells); with PA-1 cells, 100 ng/mL, 72 h, E:T 10:1, three donors): approximately 58±2%
- cytokine induction (human PBMCs; absence of CLDN6-positive PA-1 target cells): no cytokine induction was observed
- IL-6 induction (human PBMCs; absence of target cells, highest concentration of RiboMab02.1): low induction of IL-6 seen with one donor
- release of IFN-γ, IL-1β, IL-2, IL-6, IL-10 and TNF-α (human PBMCs; presence of PA-1 target cells, dose- and donor-dependent): induced the release of all cytokines
- RiboMab02.1 peak level (Cmax) in serum ([1]; 10 μg BNT142 weekly x5, 6 h after last injection): up to 7.4 μg/mL
- RiboMab02.1 translation between subsequent injections ([1]; either BNT142 dose): no loss in RiboMab02.1 translation
- Ctrough lower than Cmax ([1]; within 7 days of each injection): approximately 130 fold
- anticipated full clearance from the human body (five half-lives) [2]: 135 to 185 h
- binding to CLDN9 (CLDN9): not to CLDN3, CLDN4 or CLDN9
- Effective t1/2 (mean) ([3]; 0.050 mg/kg, group, n=2): 28.1 h
- Cmax (mean) ([3]; 0.050 mg/kg, group, n=3): 27.5 ng/mL
- Ctrough (mean) ([3]; 0.050 mg/kg, group, n=3): 3.6 ng/mL
- tlast (median) ([3]; 0.050 mg/kg, group, n=3): 72 h
- Cmax [3, 4]: 32.8 ng/mL and 19.1 ng/mL and 30.7 ng/mL
- Ctrough [3, 4]: 0.6 ng/mL and 5.6 ng/mL
- tlast [3, 4]: 168 h and 72 h (2×)
- Effective t1/2 ([3]; 0.050 mg/kg, individual animals, from MRT0-inf): 28.1 h
- Effective t1/2 (mean) ([3]; […], group, n=1): 26.5 h
- Effective t1/2 (mean) ([3]; […], group, n=3): 36.6 h
- Effective t1/2 ([3]; […], individual animals, calculated from MRT0-inf): 26.5 h
- inter-individual difference in concentration at Cmax ([3]; highest dose group): 2 fold
